Target: c-Met on cancer cell lines (Caki-1 renal cell carcinoma; MKN45 c-Met-amplified gastric cancer) (UniProt P08581 25-1390)
Assay: cell-based or functional assay

Sequence of c-Met on cancer cell lines (Caki-1 renal cell carcinoma; MKN45 c-Met-amplified gastric cancer) (UniProt P08581 25-1390) (P08581 25-1390): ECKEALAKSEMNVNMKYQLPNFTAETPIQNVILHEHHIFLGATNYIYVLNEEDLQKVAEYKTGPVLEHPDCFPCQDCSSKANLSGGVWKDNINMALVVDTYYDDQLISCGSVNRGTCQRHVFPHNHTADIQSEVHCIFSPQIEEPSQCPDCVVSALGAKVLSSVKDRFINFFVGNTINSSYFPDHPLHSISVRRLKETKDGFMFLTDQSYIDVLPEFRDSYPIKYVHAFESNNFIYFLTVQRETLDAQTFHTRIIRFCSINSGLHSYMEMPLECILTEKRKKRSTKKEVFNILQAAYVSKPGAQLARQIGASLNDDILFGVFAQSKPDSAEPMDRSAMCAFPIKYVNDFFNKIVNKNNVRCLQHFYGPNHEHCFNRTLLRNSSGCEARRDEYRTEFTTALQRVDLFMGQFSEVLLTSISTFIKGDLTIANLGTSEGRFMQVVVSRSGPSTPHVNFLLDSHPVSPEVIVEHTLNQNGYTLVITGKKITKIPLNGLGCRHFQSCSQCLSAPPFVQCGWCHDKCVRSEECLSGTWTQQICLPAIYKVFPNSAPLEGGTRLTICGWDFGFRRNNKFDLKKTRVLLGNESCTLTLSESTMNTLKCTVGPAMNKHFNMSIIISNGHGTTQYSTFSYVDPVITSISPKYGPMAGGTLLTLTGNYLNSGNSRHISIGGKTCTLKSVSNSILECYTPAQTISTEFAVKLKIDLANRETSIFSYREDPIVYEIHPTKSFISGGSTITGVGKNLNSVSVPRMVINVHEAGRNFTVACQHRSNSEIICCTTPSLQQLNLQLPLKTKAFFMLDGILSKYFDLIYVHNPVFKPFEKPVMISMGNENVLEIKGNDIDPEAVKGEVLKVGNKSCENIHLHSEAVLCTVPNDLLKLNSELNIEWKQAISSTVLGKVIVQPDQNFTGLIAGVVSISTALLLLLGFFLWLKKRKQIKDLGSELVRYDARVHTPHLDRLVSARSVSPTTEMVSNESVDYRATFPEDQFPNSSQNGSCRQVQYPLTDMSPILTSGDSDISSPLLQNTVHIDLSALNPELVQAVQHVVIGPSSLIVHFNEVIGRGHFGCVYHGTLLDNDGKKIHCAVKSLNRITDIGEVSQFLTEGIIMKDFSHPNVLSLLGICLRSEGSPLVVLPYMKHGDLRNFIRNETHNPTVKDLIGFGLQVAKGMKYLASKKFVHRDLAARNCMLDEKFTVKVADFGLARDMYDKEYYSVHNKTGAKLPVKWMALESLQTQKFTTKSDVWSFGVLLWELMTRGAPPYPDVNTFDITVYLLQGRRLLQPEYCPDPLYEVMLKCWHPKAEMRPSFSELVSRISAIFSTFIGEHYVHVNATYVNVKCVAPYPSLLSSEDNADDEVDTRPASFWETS

Molecule | agonist activity: Akt phosphorylation in Caki-1 cells, Mean (%) (PBS = 0%, HGF/SF = 100%)
1F12 (parent antibody), full-length human IgG1 (antibody, V domains shown) VH: EVQLLESGGGLVQPGGSLRLSCAASGFTFSNYAMSWVRQAPGKGLEWVSGISYSGGSTYYADSVKGRFTISRDNSKNTLYLQMNSLRAEDTAVYYCAKASRSCQRPACSYANGMDVWGQGTLVTVSS VL: QSVLTQPPSASGTPGQRVTISCTGSSSNIGNNYVTWYQQLPGTAPKLLIYYNNHRPSGVPDRFSGSKSGTSASLAISGLQSEDEADYYCGSWDYSLSAYVFGGGTKLTVL | 18.2
1F12_L26D, full-length human IgG1 (antibody, V domains shown) VH: EVQLLESGGGLVQPGGSLRLSCAASGFTFSNYAMSWVRQAPGKGLEWVSGISYSGGSTYYADSVKGRFTISRDNSKNTLYLQMNSLRAEDTAVYYCAKASRSCQRPACSYANGMDVWGQGTLVTVSS VL: QSVLTQPPSASGTPGQRVTISCTGDSSNIGNNYVTWYQQLPGTAPKLLIYYNNHRPSGVPDRFSGSKSGTSASLAISGLQSEDEADYYCGSWDYSLSAYVFGGGTKLTVL | 38.1
1F12_H35H, full-length human IgG1 (antibody, V domains shown) VH: EVQLLESGGGLVQPGGSLRLSCAASGFTFSNYAMHWVRQAPGKGLEWVSGISYSGGSTYYADSVKGRFTISRDNSKNTLYLQMNSLRAEDTAVYYCAKASRSCQRPACSYANGMDVWGQGTLVTVSS VL: QSVLTQPPSASGTPGQRVTISCTGSSSNIGNNYVTWYQQLPGTAPKLLIYYNNHRPSGVPDRFSGSKSGTSASLAISGLQSEDEADYYCGSWDYSLSAYVFGGGTKLTVL | 17.3
1F12_H53D, full-length human IgG1 (antibody, V domains shown) VH: EVQLLESGGGLVQPGGSLRLSCAASGFTFSNYAMSWVRQAPGKGLEWVSGISYDGGSTYYADSVKGRFTISRDNSKNTLYLQMNSLRAEDTAVYYCAKASRSCQRPACSYANGMDVWGQGTLVTVSS VL: QSVLTQPPSASGTPGQRVTISCTGSSSNIGNNYVTWYQQLPGTAPKLLIYYNNHRPSGVPDRFSGSKSGTSASLAISGLQSEDEADYYCGSWDYSLSAYVFGGGTKLTVL | 24.5
1F12_H60N, full-length human IgG1 (antibody, V domains shown) VH: EVQLLESGGGLVQPGGSLRLSCAASGFTFSNYAMSWVRQAPGKGLEWVSGISYSGGSTYYNDSVKGRFTISRDNSKNTLYLQMNSLRAEDTAVYYCAKASRSCQRPACSYANGMDVWGQGTLVTVSS VL: QSVLTQPPSASGTPGQRVTISCTGSSSNIGNNYVTWYQQLPGTAPKLLIYYNNHRPSGVPDRFSGSKSGTSASLAISGLQSEDEADYYCGSWDYSLSAYVFGGGTKLTVL | 27.7
1F12_H58D, full-length human IgG1 (antibody, V domains shown) VH: EVQLLESGGGLVQPGGSLRLSCAASGFTFSNYAMSWVRQAPGKGLEWVSGISYSGGSTDYADSVKGRFTISRDNSKNTLYLQMNSLRAEDTAVYYCAKASRSCQRPACSYANGMDVWGQGTLVTVSS VL: QSVLTQPPSASGTPGQRVTISCTGSSSNIGNNYVTWYQQLPGTAPKLLIYYNNHRPSGVPDRFSGSKSGTSASLAISGLQSEDEADYYCGSWDYSLSAYVFGGGTKLTVL | 21.5
1F12_H57K, full-length human IgG1 (antibody, V domains shown) VH: EVQLLESGGGLVQPGGSLRLSCAASGFTFSNYAMSWVRQAPGKGLEWVSGISYSGGSKYYADSVKGRFTISRDNSKNTLYLQMNSLRAEDTAVYYCAKASRSCQRPACSYANGMDVWGQGTLVTVSS VL: QSVLTQPPSASGTPGQRVTISCTGSSSNIGNNYVTWYQQLPGTAPKLLIYYNNHRPSGVPDRFSGSKSGTSASLAISGLQSEDEADYYCGSWDYSLSAYVFGGGTKLTVL | 26.8
1F12_L27bD, full-length human IgG1 (antibody, V domains shown) VH: EVQLLESGGGLVQPGGSLRLSCAASGFTFSNYAMSWVRQAPGKGLEWVSGISYSGGSTYYADSVKGRFTISRDNSKNTLYLQMNSLRAEDTAVYYCAKASRSCQRPACSYANGMDVWGQGTLVTVSS VL: QSVLTQPPSASGTPGQRVTISCTGSSSDIGNNYVTWYQQLPGTAPKLLIYYNNHRPSGVPDRFSGSKSGTSASLAISGLQSEDEADYYCGSWDYSLSAYVFGGGTKLTVL | 30.3
1F12_H100eH, full-length human IgG1 (antibody, V domains shown) VH: EVQLLESGGGLVQPGGSLRLSCAASGFTFSNYAMSWVRQAPGKGLEWVSGISYSGGSTYYADSVKGRFTISRDNSKNTLYLQMNSLRAEDTAVYYCAKASRSCQRPACHYANGMDVWGQGTLVTVSS VL: QSVLTQPPSASGTPGQRVTISCTGSSSNIGNNYVTWYQQLPGTAPKLLIYYNNHRPSGVPDRFSGSKSGTSASLAISGLQSEDEADYYCGSWDYSLSAYVFGGGTKLTVL | 27.5
1F12_H3L5, full-length human IgG1 (antibody, V domains shown) VH: EVQLLESGGGLVQPGGSLRLSCAASGFTFSNYAMSWVRQAPGKGLEWVSGISYSGGSKYYADSVKGRFTISRDNSKNTLYLQMNSLRAEDTAVYYCAKASRSCQRPACSYANGMDVWGQGTLVTVSS VL: QSVLTQPPSASGTPGQRVTISCTGSSSNIGNNYVTWYQQLPGTAPKLLIYYNNHRPSGVPDRFSGSKSGTSASLAISGLQSEDEADYYCGSWDYSLRAYVFGGGTKLTVL | 18.9
1F12_H2L6, full-length human IgG1 (antibody, V domains shown) VH: EVQLLESGGGLVQPGGSLRLSCAASGFTFSNYAMSWVRQAPGKGLEWVSGISYDGGSTYYADSVKGRFTISRDNSKNTLYLQMNSLRAEDTAVYYCAKASRSCQRPACSYANGMDVWGQGTLVTVSS VL: QSVLTQPPSASGTPGQRVTISCTGSSSNIGNNYVTWYQQLPGTAPKLLIYYNNHRPSGVPDRFSGSKSGTSASLAISGLQSEDEADYYCGSWDYSLSADVFGGGTKLTVL | 26
1F12_H2L3, full-length human IgG1 (antibody, V domains shown) VH: EVQLLESGGGLVQPGGSLRLSCAASGFTFSNYAMSWVRQAPGKGLEWVSGISYDGGSTYYADSVKGRFTISRDNSKNTLYLQMNSLRAEDTAVYYCAKASRSCQRPACSYANGMDVWGQGTLVTVSS VL: QSVLTQPPSASGTPGQRVTISCTGSSSNIGNNYVTWYQQLPGTAPKLLIYENNHRPSGVPDRFSGSKSGTSASLAISGLQSEDEADYYCGSWDYSLSAYVFGGGTKLTVL | 24.5
1F12_H6L5, full-length human IgG1 (antibody, V domains shown) VH: EVQLLESGGGLVQPGGSLRLSCAASGFTFSNYAMSWVRQAPGKGLEWVSGISYSGGSTYYADSVKGRFTISRDNSKNTLYLQMNSLRAEDTAVYYCAKASRSCQRPACHYANGMDVWGQGTLVTVSS VL: QSVLTQPPSASGTPGQRVTISCTGSSSNIGNNYVTWYQQLPGTAPKLLIYYNNHRPSGVPDRFSGSKSGTSASLAISGLQSEDEADYYCGSWDYSLRAYVFGGGTKLTVL | 18.2

The remaining lines, values ahead:

agonist activity: Akt phosphorylation in Caki-1 cells, Mean (%) (PBS = 0%, HGF/SF = 100%) | Molecule
29.5 | 1F12_L95aR, full-length human IgG1 (antibody, V domains shown) VH: EVQLLESGGGLVQPGGSLRLSCAASGFTFSNYAMSWVRQAPGKGLEWVSGISYSGGSTYYADSVKGRFTISRDNSKNTLYLQMNSLRAEDTAVYYCAKASRSCQRPACSYANGMDVWGQGTLVTVSS VL: QSVLTQPPSASGTPGQRVTISCTGSSSNIGNNYVTWYQQLPGTAPKLLIYYNNHRPSGVPDRFSGSKSGTSASLAISGLQSEDEADYYCGSWDYSLRAYVFGGGTKLTVL
37.2 | 1F12_L50E, full-length human IgG1 (antibody, V domains shown) VH: EVQLLESGGGLVQPGGSLRLSCAASGFTFSNYAMSWVRQAPGKGLEWVSGISYSGGSTYYADSVKGRFTISRDNSKNTLYLQMNSLRAEDTAVYYCAKASRSCQRPACSYANGMDVWGQGTLVTVSS VL: QSVLTQPPSASGTPGQRVTISCTGSSSNIGNNYVTWYQQLPGTAPKLLIYENNHRPSGVPDRFSGSKSGTSASLAISGLQSEDEADYYCGSWDYSLSAYVFGGGTKLTVL
42.5 | 1F12_L51D, full-length human IgG1 (antibody, V domains shown) VH: EVQLLESGGGLVQPGGSLRLSCAASGFTFSNYAMSWVRQAPGKGLEWVSGISYSGGSTYYADSVKGRFTISRDNSKNTLYLQMNSLRAEDTAVYYCAKASRSCQRPACSYANGMDVWGQGTLVTVSS VL: QSVLTQPPSASGTPGQRVTISCTGSSSNIGNNYVTWYQQLPGTAPKLLIYYDNHRPSGVPDRFSGSKSGTSASLAISGLQSEDEADYYCGSWDYSLSAYVFGGGTKLTVL
21.2 | 1F12_L96D, full-length human IgG1 (antibody, V domains shown) VH: EVQLLESGGGLVQPGGSLRLSCAASGFTFSNYAMSWVRQAPGKGLEWVSGISYSGGSTYYADSVKGRFTISRDNSKNTLYLQMNSLRAEDTAVYYCAKASRSCQRPACSYANGMDVWGQGTLVTVSS VL: QSVLTQPPSASGTPGQRVTISCTGSSSNIGNNYVTWYQQLPGTAPKLLIYYNNHRPSGVPDRFSGSKSGTSASLAISGLQSEDEADYYCGSWDYSLSADVFGGGTKLTVL

Target: c-Met on cancer cell lines (Caki-1 renal cell carcinoma; MKN45 c-Met-amplified gastric cancer) (UniProt P08581)
Sequence (P08581 25-1390): as the sequence (P08581 25-1390) above
Assay: cell-based or functional assay

agonist activity: Akt phosphorylation in Caki-1 cells, Mean (%) (PBS = 0%, HGF/SF = 100%) | Molecule
86 | 5D5, c-Met agonist antibody
30.5 | Onartuzumab (OA-5D5; monovalent c-Met antibody, Genentech)
100 | c-Met ligand HGF/SF (R&D systems) (from UniProt P14210 32-728)

— patent US20210363262A1 (AIMED BIO, published 2021)
